Data set [1] addresses sGC beta1 H-NOXA domain H-NOXA (UniProt Q02153). The following applies: cited from earlier work.
Data set [2] has as its target sGC beta1 catalytic domain catalytic domain (UniProt Q02153). The following applies: cited from earlier work.
Data set [3] deals with the molecule itself. The data set is described as follows: SEC; analytic gel filtration on a Superdex 75 column calibrated with Mw standards, before crystallization; major 38.5 kD and minor 19.5 kD species.

Data on three molecules can be found in PMC2828450, “Crystal structure of the signaling helix coiled-coil domain of the β1 subunit of the soluble guanylyl cyclase” (BMC Structural Biology, 2010).

As a reminder, the Kd is a measure of binding affinity in units of concentration. In general, stoichiometry N refers to the number of molecules, sites or subunits per partner or assembly.

Values joined by “and” are separate entries in the source; they are usually repeats but may differ in a detail not shown here. Equal entries are not always repeated. Some results are limits rather than exact numbers.

On to “sGC beta1 H-NOXA domain H-NOXA (from UniProt Q02153)”, for which the Kd in data set [1] was < 60 µM.

As to “sGC beta1 catalytic domain catalytic domain (from UniProt Q02153)”, the Kd in data set [2] was 6 µM.

B1: Rattus norvegicus soluble guanylyl cyclase β1 subunit coiled-coil domain, residues 348-409, I371M (domain or fragment)
chain: GSHMATRDLVLLGEQFREEYKLTQELEMLTDRLQLTLRALEDEKKKTDTLLYSVLPPSVANELRHK
modifications: not fully specified (residues 4, 28); printed as gshmATRDLVLLGEQFREEYKLTQELE**M**LTDRLQLTLRALEDEKKKTDTLLYSVLPPSVANELRHK; also: expressed with selenomethionine (Met replaced by SeMet)
notes: N-terminal cloning artefact left after thrombin cleavage of the pET15b tag; The printed calculated mass of 7712.86 Da fits GSHM + 348-409 with I371M (my calculation; wild type would be about 7694.8 Da), and only the I371M construct's purification is described; One molecule is therefore used for all three experiments; also called sGCβ1 CC; rsGCβ1 CC domain; source: E. coli BL21 (DE3) pLysS, …
In the case of B1, the “stoichiometry N” value in data set [3] was 4 and 2.
